Test [1] concerns the target Rabbit skeletal muscle actin, monomeric (G-actin) (rabbit) (UniProt P68135). In words: SPR.
Test [2] has as its target Rabbit skeletal muscle actin, filamentous (F-actin) (rabbit) (UniProt P68135).
Test [3] has as its target Rabbit skeletal muscle actin, monomeric (G-actin) (rabbit) (UniProt P68135). In words: cross-linking.

Values joined by “and” are separate entries in the source; they are usually repeats but may differ in a detail not shown here. Equal entries are not always repeated.

In test [1], PfADF1.K72A (natural protein) returned a Kd of 33 µM and a kon of 64.2 M⁻¹ s⁻¹.

“Plasmodium falciparum actin depolymerizing factor 1 (PfADF1), wild type (natural protein)” registered a filament pitch by negative-stain TEM, similar concentration of PfADF1 in test [2] of 39.4 nm. Further, in test [1], the Kd came to 3.5 µM and the kon stood at 95.9 M⁻¹ s⁻¹. Also, the percent of actin and PfADF1 linked by EDC in test [3] was 10% and 25%.

The values above are taken from publication PMC3924271.
